In PMC4663108 (Journal of molecular biology, 2015):

Molecular target: DnaK D45C-biotin (E. coli, UniProt P0A6Y8 1-638, D45C, biotin (labeled with a 20-fold excess of Maleimide-PEG11-Biotin))
Assay: pull-down

binding result: binds
B1: CbpA (natural protein, E. coli, UniProt P36659 1-306, looked up)
chain: MELKDYYAIMGVKPTDDLKTIKTAYRRLARKYHPDVSKEPDAEARFKEVAEAWEVLSDEQRRAEYDQMWQHRNDPQFNRQFHHGDGQSFNAEDFDDIFSSIFGQHARQSRQRPATRGHDIEIEVAVFLEETLTEHKRTISYNLPVYNAFGMIEQEIPKTLNVKIPAGVGNGQRIRLKGQGTPGENGGPNGDLWLVIHIAPHPLFDIVGQDLEIVVPVSPWEAALGAKVTVPTLKESILLTIPPGSQAGQRLRVKGKGLVSKKQTGDLYAVLKIVMPPKPDENTAALWQQLADAQSSFDPRKDWGKA
